Experimental data from patent publication US20170219596A1.

What was measured:
[1] = target: dCas9-SunTag10×_v4; assay: cell-based or functional assay
[2] = target: mito-mCherry-4×GCN4pep (yeast); assay: FRAP of scFv-GCN4-GFP bound to the mitochondrial scaffold in U2OS cells
[3] = target: mito-mCherry-4×GCN4pep with short linker (GGSGG; SEQ ID NO:3) (yeast); assay: quantitative fluorescence microscopy on mitochondria, normalized to a sfGFP-mCherry fusion; antibodies per 4× array, short linker

| half-life of GFP fluorescence recovery (FRAP) [2] | average GFP:mCherry molar ratio [3] | Substance | activation of CDKN1B transcription (mRNA by qPCR, K562 cells) [1] | activation of CXCR4 expression (CXCR4 protein level by FACS, K562 cells) [1] |
| --- | --- | --- | --- | --- |
| – | – | scFv-GCN4-GFP-NLS-VP64 | 330% | 10 to 50 fold |
| 5 to 10 min | 3.4 | scFv-GCN4-sfGFP-GB1 | – | – |
